Experimental data: the supplement of paper PMC10126150
± gives the standard deviation of the averaged measurements.

tested on: ATP; assay: switch fluorescence ratio, 500 uM ATP over buffer (Cy3 cluster intensity, sum of 5 cycles each) (fold (ratio)); higher = stronger signal-on switching upon ATP binding; sequences stand for … in TCGTCGGCAGCGTCAGATGTGTATAAGAGACAGTTTTTTTTTTTTTTTTTTTTTTTTT…TC; conditions: aptamer strand: ATP DNA aptamer (quencher-CACCTGGGGGAGTATTGCGGAGGAAGG + anchor), 100 nM annealed; ATP concentration: 500 uM
Method in brief: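 After annealing to 100 nM quencher-labelled ATP aptamer, Cy3-labelled switching-strand clusters on a modified Illumina MiSeq flow-cell were imaged in selection buffer. A second image followed after 15 min with 500 uM ATP at 22 °C, and five such buffer/ATP cycles were done, each separated by NaOH stripping and re-annealing. The fluorescence ratio, averaged per switch-domain sequence, is summed target-cycle over summed buffer-cycle Cy3 intensity per cluster, with clusters outside 100-1000 RFU excluded.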
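Note: ATP exposure 15 min at 22 °C before imaging.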

Sequence	switch fluorescence ratio
TATAAGGGAG	0.996 ± 0.023
TATAAGGGTT	1.01 ± 0.017
TATAATCTGT	1.01 ± 0.017
TATACCGCGA	2.49 ± 0.29
TATACCGGCG	1.05 ± 0.076
TATACCTAGG	1.003 ± 0.0065
TATACGTGTG	1.031 ± 0.0043
TATACTATGT	1.05 ± 0.024
TATACTTAAT	1.059 ± 0.0053
TATAGAGGGG	1.07 ± 0.15
TATAGATAAG	1.01 ± 0.015
TATAGATTGG	0.985 ± 0.019
TATAGCATTA	1.04 ± 0.014
TATAGCCGAA	1 ± 0.083
TATAGGAGGG	0.991 ± 0.039
TATAGGCGCG	1.03 ± 0.072
TATAGGGACA	1.2 ± 0.03
TATAGGGATT	0.984 ± 0.015
TATAGGGGGT	1.01 ± 0.036
TATAGGGGTG	1.03 ± 0.039
TATAGGTAAT	1.03 ± 0.011
TATAGGTGCA	0.997 ± 0.024
TATAGTATGT	1.01 ± 0.015
TATATAAATT	0.985 ± 0.021
TATATATAAC	1.006 ± 0.0081

Sequence	switch fluorescence ratio
TATATATAGG	1 ± 0.025
TATATATTAA	1.001 ± 0.0023
TATATATTGC	1.02 ± 0.03
TATATCAATC	0.991 ± 0.013
TATATCGTC	1.19 ± 0.31
TATATCTTCA	1.017 ± 0.0055
TATATGCGCG	0.994 ± 0.041
TATATGGGGC	1.03 ± 0.03
TATATGGTGG	1.02 ± 0.056
TATATGGTTG	0.9383 ± 0.0022
TATATGTCCA	1 ± 0.027
TATATTACCC	1.05 ± 0.065
TATATTAGGT	1.13 ± 0.1
TATATTCTTA	1 ± 0.065
TATATTGAGG	0.991 ± 0.042
TATATTGGGA	0.992 ± 0.022
TATATTGTAA	1.01 ± 0.013
TATATTTAAG	1.01 ± 0.03
TATATTTCGG	0.995 ± 0.044
TATCAGTCGT	0.988 ± 0.032
TATCATATCA	0.956 ± 0.017
TATCATGTGA	1.01 ± 0.011
TATCATTGGG	0.968 ± 0.029
TATCATTTTG	0.986 ± 0.057
TATCCCTGTT	0.976 ± 0.013

Sequence	switch fluorescence ratio
TATCCGGGGT	1.03 ± 0.025
TATCCTTTCA	1.04 ± 0.026
TATCCTTTGA	1.002 ± 0.0014
TATCGAATCC	0.99 ± 0.025
TATCGAGCAT	1.028 ± 0.0096
TATCGAGTTT	1 ± 0.038
TATCGGAAGG	0.9901 ± 0.0013
TATCGGCGTG	0.98796 ± 0.00031
TATCGGGGCT	0.981 ± 0.064
TATCGGGGGT	1.02 ± 0.039
TATCGGTCGG	0.98 ± 0.021
TATCGGTGTT	0.991 ± 0.027
TATCGTACAG	1.06 ± 0.011
TATCGTAGGA	0.977 ± 0.032
TATCGTATTG	0.979 ± 0.011
TATCGTGATG	0.992 ± 0.039
TATCTAAAAC	1.001 ± 0.0032
TATCTAGAGG	1.01 ± 0.022
TATCTCAGAA	0.99 ± 0.014
TATCTCTGGG	1.02 ± 0.014
TATCTGGGGC	1.04 ± 0.025
TATGAAAATC	0.983 ± 0.03
TATGAAGAAG	0.994 ± 0.054
TATGAAGTCG	0.9937 ± 0.0098
TATGAATAGC	1.02 ± 0.05

Sequence	switch fluorescence ratio
TATGAATTTG	1 ± 0.028
TATGACACTT	1.03 ± 0.047
TATGACAGGG	1.05 ± 0.024
TATGACATGG	0.959 ± 0.011
TATGAGAGGC	1.04 ± 0.035
TATGAGCTGG	0.97 ± 0.015
TATGAGGAGT	0.982 ± 0.015
TATGAGTAAT	0.9866 ± 0.0093
TATGATATCC	0.9783 ± 0.0089
TATGATGGGT	1.015 ± 0.01
TATGATGTTA	0.9931 ± 0.0093
TATGCATATT	1.04 ± 0.032
TATGCCTGTG	1.01 ± 0.036
TATGCTGGTT	1.05 ± 0.061
TATGCTTTAA	1.01 ± 0.024
TATGGAAACG	0.981 ± 0.011
TATGGAAAGG	0.994 ± 0.016
TATGGAATTT	0.985 ± 0.009
TATGGAGACC	0.9917 ± 0.0049
TATGGAGAGC	1.02 ± 0.038
TATGGAGGGT	1.01 ± 0.022
TATGGAGTTG	0.992 ± 0.032
TATGGATCTA	0.986 ± 0.048
TATGGCATAC	1.51 ± 0.02
TATGGCGGAG	0.9975 ± 0.0061
